In patent US20240417433A1 (NANTONG YICHEN BIOPHARMA, published 2024):
Several values for one entry are separate records, joined by “and”; a condition that tells them apart may be missing. Identical values can stand only once.

How the values were obtained:
[1] = target: integrin β7 on human β7-high T cells (human, UniProt P26010 20-798; P13612 34-1032); experiment: cell-based or functional assay
[2] = target: Kv1.3 potassium ion channel (UniProt P22001 1-575); experiment: cell-based or functional assay
Recombinant protein α4β7 = target: T1, Recombinant protein α4β7 (UniProt P13612 34-977; P26010 20-723); experiment: ELISA on coated recombinant α4β7 (100 ng per well)
T1 construct: Coated on the ELISA plate at 100 ng per well; also called integrin β7
T1 sequence (P13612 34-977, chain 1 of 2): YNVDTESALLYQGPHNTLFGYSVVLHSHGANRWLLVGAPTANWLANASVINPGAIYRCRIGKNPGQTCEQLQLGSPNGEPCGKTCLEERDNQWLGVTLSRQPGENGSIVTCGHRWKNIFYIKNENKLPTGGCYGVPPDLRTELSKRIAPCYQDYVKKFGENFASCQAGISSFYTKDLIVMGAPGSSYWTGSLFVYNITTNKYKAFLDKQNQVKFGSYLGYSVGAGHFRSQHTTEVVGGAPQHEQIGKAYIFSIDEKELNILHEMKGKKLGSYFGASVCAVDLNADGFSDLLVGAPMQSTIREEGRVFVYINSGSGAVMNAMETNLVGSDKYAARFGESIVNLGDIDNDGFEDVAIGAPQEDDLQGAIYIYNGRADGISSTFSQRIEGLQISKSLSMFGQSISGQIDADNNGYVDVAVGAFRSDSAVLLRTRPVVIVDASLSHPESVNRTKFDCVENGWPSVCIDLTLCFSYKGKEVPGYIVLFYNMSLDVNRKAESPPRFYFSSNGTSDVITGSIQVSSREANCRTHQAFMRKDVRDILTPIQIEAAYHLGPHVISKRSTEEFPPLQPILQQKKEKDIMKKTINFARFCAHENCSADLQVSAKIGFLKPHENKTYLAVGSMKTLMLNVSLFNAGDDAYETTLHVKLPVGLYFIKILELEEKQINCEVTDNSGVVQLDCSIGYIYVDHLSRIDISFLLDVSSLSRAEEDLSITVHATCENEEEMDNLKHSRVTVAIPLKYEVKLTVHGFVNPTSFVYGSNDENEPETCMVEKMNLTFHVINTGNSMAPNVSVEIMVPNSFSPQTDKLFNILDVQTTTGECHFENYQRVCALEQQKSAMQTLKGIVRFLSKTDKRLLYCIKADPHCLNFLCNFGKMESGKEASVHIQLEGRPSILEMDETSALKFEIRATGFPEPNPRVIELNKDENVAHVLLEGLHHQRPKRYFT
T1 sequence (P26010 20-723, chain 2 of 2): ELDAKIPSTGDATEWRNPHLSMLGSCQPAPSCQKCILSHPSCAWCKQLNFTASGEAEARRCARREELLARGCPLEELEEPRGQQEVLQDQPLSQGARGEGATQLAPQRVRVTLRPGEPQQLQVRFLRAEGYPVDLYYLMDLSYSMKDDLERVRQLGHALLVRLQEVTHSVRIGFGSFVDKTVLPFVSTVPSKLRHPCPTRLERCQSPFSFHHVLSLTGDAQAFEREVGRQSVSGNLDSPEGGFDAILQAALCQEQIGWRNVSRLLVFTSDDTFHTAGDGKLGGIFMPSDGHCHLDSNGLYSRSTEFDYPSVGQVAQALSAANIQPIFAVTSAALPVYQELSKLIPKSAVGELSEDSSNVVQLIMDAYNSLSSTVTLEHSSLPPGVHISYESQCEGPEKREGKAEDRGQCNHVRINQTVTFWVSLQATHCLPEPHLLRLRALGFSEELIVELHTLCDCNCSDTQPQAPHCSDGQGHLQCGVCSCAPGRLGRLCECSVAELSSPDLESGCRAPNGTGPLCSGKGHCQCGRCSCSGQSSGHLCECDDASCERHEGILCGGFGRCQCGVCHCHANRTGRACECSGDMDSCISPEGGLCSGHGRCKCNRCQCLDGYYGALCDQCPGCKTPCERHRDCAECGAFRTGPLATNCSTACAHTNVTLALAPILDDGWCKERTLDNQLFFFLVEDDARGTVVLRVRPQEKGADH

Sequence of Kv1.3 potassium ion channel (P22001 whole entry): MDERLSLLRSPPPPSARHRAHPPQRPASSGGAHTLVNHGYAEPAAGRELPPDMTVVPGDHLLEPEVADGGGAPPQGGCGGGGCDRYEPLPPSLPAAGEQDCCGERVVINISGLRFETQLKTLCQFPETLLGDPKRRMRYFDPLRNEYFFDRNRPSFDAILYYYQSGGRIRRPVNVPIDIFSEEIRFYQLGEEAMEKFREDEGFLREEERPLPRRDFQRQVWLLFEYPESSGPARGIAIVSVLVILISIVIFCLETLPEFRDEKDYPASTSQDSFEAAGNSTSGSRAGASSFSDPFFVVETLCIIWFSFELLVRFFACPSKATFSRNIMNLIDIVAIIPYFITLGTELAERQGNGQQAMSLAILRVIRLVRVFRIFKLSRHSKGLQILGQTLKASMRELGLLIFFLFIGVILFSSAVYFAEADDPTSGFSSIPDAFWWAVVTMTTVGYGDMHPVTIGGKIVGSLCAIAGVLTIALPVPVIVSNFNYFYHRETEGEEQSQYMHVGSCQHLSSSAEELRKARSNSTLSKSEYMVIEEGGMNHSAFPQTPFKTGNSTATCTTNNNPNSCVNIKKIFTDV

| Binder | IC50, cell adhesion assay (CellTiter-Glo) [1] | IC50, Flipr potassium current fluorescence detection [2] | Kd (Recombinant protein α4β7) | binding result (Recombinant protein α4β7) |
| --- | --- | --- | --- | --- |
| ATF-L1 (bispecific antibody) heavy: not shown light: DIQMTQSPSSLSASVGDRVTITCRASESGGSGAKLAALKAKLAALKGGGGSAAAISCVGSPECPPKCRAQGCKNGKCMNRKCKCYYCGGGGSELAALEAELAALEAGGSGLLHWYQQKPGKAPKLLIKYASQSISGVPSRFSGSGSGTDFTLTISSLQPEDFATYYCQQGNSLPNTFGQGTKVEIKRTVAAPSVFIFPPSDEQLKSGTASVVCLLNNFYPREAKVQWKVDNALQSGNSQESVTEQDSKDSTYSLSSTLTLSKADYEKHKVYACEVTHQGLSSPVTKSFNRGEC | 0.173 µg/ml and 1.09 nM | 0.7 nM | – | – |
| ATF-L3 (bispecific antibody, Vm24 with linkers grafted into LCDR3 of etrolizumab; also called ATF-L3 (with LCDR3-grafted Vm24)) heavy: not shown light: DIQMTQSPSSLSASVGDRVTITCRASESVDDLLHWYQQKPGKAPKLLIKYASQSISGVPSRFSGSGSGTDFTLTISSLQPEDFATYYCQQGGGSGAKLAALKAKLAALKGGGGSAAAISCVGSPECPPKCRAQGCKNGKCMNRKCKCYYCGGGGSELAALEAELAALEAGGSGNTFGQGTKVEIKRTVAAPSVFIFPPSDEQLKSGTASVVCLLNNFYPREAKVQWKVDNALQSGNSQESVTEQDSKDSTYSLSSTLTLSKADYEKHKVYACEVTHQGLSSPVTKSFNRGEC | – | – | 0.0408 nM | – |
| ATF-H2 (bispecific antibody, The summary says the graft lies between 60N and 65S of heavy chain FR3; also called ATF-H2 (with HCDR2-grafted Vm24)) heavy: not shown light: DIQMTQSPSSLSASVGDRVTITCRASESVDDLLHWYQQKPGKAPKLLIKYASQSISGVPSRFSGSGSGTDFTLTISSLQPEDFATYYCQQGNSLPNTFGQGTKVEIKRTVAAPSVFIFPPSDEQLKSGTASVVCLLNNFYPREAKVQWKVDNALQSGNSQESVTEQDSKDSTYSLSSTLTLSKADYEKHKVYACEVTHQGLSSPVTKSFNRGEC | 0.072 µg/ml and 0.45 nM | 0.53 nM | 0.0192 nM | – |
| ATF-H3 (bispecific antibody, Vm24 with linkers grafted into HCDR3 of etrolizumab; also called ATF-H3 (with HCDR3-grafted Vm24)) heavy: not shown light: DIQMTQSPSSLSASVGDRVTITCRASESVDDLLHWYQQKPGKAPKLLIKYASQSISGVPSRFSGSGSGTDFTLTISSLQPEDFATYYCQQGNSLPNTFGQGTKVEIKRTVAAPSVFIFPPSDEQLKSGTASVVCLLNNFYPREAKVQWKVDNALQSGNSQESVTEQDSKDSTYSLSSTLTLSKADYEKHKVYACEVTHQGLSSPVTKSFNRGEC | – | – | 13.9 nM | – |
| ATF-H1 (bispecific antibody, Vm24 with linkers grafted into HCDR1 of etrolizumab; also called ATF-H1 (with HCDR1-grafted Vm24)) heavy: not shown light: DIQMTQSPSSLSASVGDRVTITCRASESVDDLLHWYQQKPGKAPKLLIKYASQSISGVPSRFSGSGSGTDFTLTISSLQPEDFATYYCQQGNSLPNTFGQGTKVEIKRTVAAPSVFIFPPSDEQLKSGTASVVCLLNNFYPREAKVQWKVDNALQSGNSQESVTEQDSKDSTYSLSSTLTLSKADYEKHKVYACEVTHQGLSSPVTKSFNRGEC | – | 0.72 nM | – | no binding |
| ATF-L2 (bispecific antibody, The summary says the graft lies between 56S and 60S of light chain FR3; also called ATF-L2 (with LCDR2-grafted Vm24)) heavy: not shown light: DIQMTQSPSSLSASVGDRVTITCRASESVDDLLHWYQQKPGKAPKLLIKYASQSISGGSGAKLAALKAKLAALKGGGGSAAAISCVGSPECPPKCRAQGCKNGKCMNRKCKCYYCGGGGSELAALEAELAALEAGGSGSRFSGSGSGTDFTLTISSLQPEDFATYYCQQGNSLPNTFGQGTKVEIKRTVAAPSVFIFPPSDEQLKSGTASVVCLLNNFYPREAKVQWKVDNALQSGNSQESVTEQDSKDSTYSLSSTLTLSKADYEKHKVYACEVTHQGLSSPVTKSFNRGEC | – | – | 0.0359 nM | – |
| Etrolizumab (antibody, V domains shown) VH: EVQLVESGGGLVQPGGSLRLSCAASGFFITNNYWGWVRQAPGKGLEWVGYISYSGSTSYNPSLKSRFTISRDTSKNTFYLQMNSLRAEDTAVYYCARTGSSGYFDFWGQGTLVTVSS VL: DIQMTQSPSSLSASVGDRVTITCRASESVDDLLHWYQQKPGKAPKLLIKYASQSISGVPSRFSGSGSGTDFTLTISSLQPEDFATYYCQQGNSLPNTFGQGTKVEIKR | 0.06 µg/ml and 0.42 nM | – | – | – |
